One data set concerns biotinyl-Trp-oxazolone. Briefly: self-aminoacylation, catalytic enhancement (BWO) (fold over background); higher = more active; k-Seq, kA / k0A0; sequences stand for … in GGGAAUGGAUCCACAUCUACGAAUUC…UUCACUGCAGACUUGACGAAGCUG
In outline: (§1)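 Each biotinyl-aminoacyl-oxazolone, at 2–1250 μM, was incubated with mutagenized RNA pools (0.43 μM) carrying a 21-nt variable region. The 50 μL reactions contained HEPES/NaCl/KCl/MgCl2/CaCl2 buffer with 5% acetonitrile at pH 6.9–7.0 and ran for 90 minutes at room temperature. After streptavidin capture, RNA was measured by qPCR in triplicate and by Illumina sequencing, and catalytic enhancement was calculated as median kA over the uncatalyzed rate from a pseudo-first-order fit of per-sequence fraction reacted.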

For a further data set, the system named is biotinyl-Phe-oxazolone. The data set is described as follows: self-aminoacylation, catalytic enhancement (BFO) (fold over background); higher = more active; k-Seq, kA / k0A0; sequences stand for … in GGGAAUGGAUCCACAUCUACGAAUUC…UUCACUGCAGACUUGACGAAGCUG
In outline: as §1

Variants at the floor of the assay were thinned out.

For “AAGCUUGCUAAUAGUCGCUAG [Fam3.1 aminoacylation ribozyme variant]”, the results for the self-aminoacylation in the data set with biotinyl-Trp-oxazolone and with biotinyl-Phe-oxazolone were 2 and 2.31, respectively. The corresponding values for “CAACUUCAAACAAUCAGUCUG [Fam1A.1 aminoacylation ribozyme variant]” are 11.2 and 29.7. “AAGUGUGCUCAUAGUCGCAAG [Fam3.1 aminoacylation ribozyme variant]”: the self-aminoacylation in the data set with biotinyl-Trp-oxazolone was 2.34; in the data set on biotinyl-Phe-oxazolone, 4.43. For “CCACACUUCAAUCAAUCAGUC [Fam1B.1 aminoacylation ribozyme variant]”, in that order: 7.45 and 22.8. Take “CUCCUUCAAACAAUCGGUCUA [Fam1A.1 aminoacylation ribozyme variant]”: the figures for the self-aminoacylation in the data set with biotinyl-Trp-oxazolone and in the data set on biotinyl-Phe-oxazolone were 9.25 and 18.5, respectively.

As to “CUGCUACAAACAAUCGGUCUG [Fam1A.1 aminoacylation ribozyme variant]”, the self-aminoacylation in the data set with biotinyl-Trp-oxazolone stood at 2.27; with biotinyl-Phe-oxazolone, 2.73. The corresponding values for “AUACUUCAAACAAUCGGGCUG [Fam1A.1 aminoacylation ribozyme variant]” are 3.93 and 3.63. For “UUACUUCAAACAAUCGGUCAG [Fam1A.1 aminoacylation ribozyme variant]”, in that order: 5.17 and 8.02. For “CUUCUUCAAACAAUCAGUCUG [Fam1A.1 aminoacylation ribozyme variant]”, in that order: 5.05 and 12.3. On to “CCAACCUUCAAGCAAUCGGUC [Fam1B.1 aminoacylation ribozyme variant]”, for which the self-aminoacylation with biotinyl-Trp-oxazolone turned out to be 15.3; with biotinyl-Phe-oxazolone it was 25.8. The corresponding values for “CGACUUCAAACAAUCGGACUG [Fam1A.1 aminoacylation ribozyme variant]” are 3.53 and 6.95. The corresponding values for “CUACUUCAAAUAAUCGGUCUG [Fam1A.1 aminoacylation ribozyme variant]” are 10.5 and 18.3. For “AAUUUUGCUGAUAGUCGCAAG [Fam3.1 aminoacylation ribozyme variant]”, in that order: 2.31 and 2.05. As for “CCACAGUUCAAACAAUCGGUC [Fam1B.1 aminoacylation ribozyme variant]”, the figures for the self-aminoacylation with biotinyl-Trp-oxazolone and with biotinyl-Phe-oxazolone were 12 and 18.2, respectively. For “CCAGACUUCAAUCAAUCGGUC [Fam1B.1 aminoacylation ribozyme variant]”, in that order: 21.1 and 34.2.

On to “AAGGAUGCUAAUAGUCGCAAG [Fam3.1 aminoacylation ribozyme variant]”, for which the figures for the self-aminoacylation with biotinyl-Trp-oxazolone and in the data set on biotinyl-Phe-oxazolone were 5.63 and 13.7, respectively. For the sequence “AUUACCCGGGUCAUCGAGUUA [Fam2.1 aminoacylation ribozyme variant]”, the self-aminoacylation in the data set on biotinyl-Trp-oxazolone was 2.23. In the case of “CUACUUCAAAAAAUCGGGCUG [Fam1A.1 aminoacylation ribozyme variant]”, the self-aminoacylation with biotinyl-Trp-oxazolone stood at 3.06; with biotinyl-Phe-oxazolone, 3.05. “CUUCUUCAAACAAUCGGUUUG [Fam1A.1 aminoacylation ribozyme variant]”: the self-aminoacylation in the data set with biotinyl-Trp-oxazolone was determined as 13.8; in the data set with biotinyl-Phe-oxazolone it was 20.7. The corresponding values for “CCAGCCUUCAAGCAAUCGGUC [Fam1B.1 aminoacylation ribozyme variant]” are 21.3 and 30.7.

As for “AAGUUUGCGAAUAGUCGCGAG [Fam3.1 aminoacylation ribozyme variant]”, the results for the self-aminoacylation with biotinyl-Trp-oxazolone and in the data set on biotinyl-Phe-oxazolone were 2.14 and 8.44, respectively. “AAGUGUGCUAAUCGUCGCAAG [Fam3.1 aminoacylation ribozyme variant]”: the self-aminoacylation in the data set on biotinyl-Trp-oxazolone came to 2.44.

With “GUACUUCAAGCAAUCGGUCUG [Fam1A.1 aminoacylation ribozyme variant]”, the self-aminoacylation in the data set with biotinyl-Trp-oxazolone was 7.17; in the data set on biotinyl-Phe-oxazolone, 8.1. For “CCAGACUUCAAGAAAUCGGUC [Fam1B.1 aminoacylation ribozyme variant]”, in that order: 6.84 and 8.29. For “CUACUUCAACCAAUCGGUCGG [Fam1A.1 aminoacylation ribozyme variant]”, in that order: 8.86 and 14.3. For “CUGCUUCAAACAAUCGGUCAG [Fam1A.1 aminoacylation ribozyme variant]”, in that order: 23 and 41.9. Consider “CGAAUUCAAACAAUCGGUCUG [Fam1A.1 aminoacylation ribozyme variant]”, for which the self-aminoacylation with biotinyl-Trp-oxazolone was 3.38; in the data set on biotinyl-Phe-oxazolone it was 4.97.

“AAGUUUGCUAAUAGUCCCAAG [Fam3.1 aminoacylation ribozyme variant]”: the self-aminoacylation in the data set on biotinyl-Trp-oxazolone came out at 2.12; in the data set on biotinyl-Phe-oxazolone, 5.64.

Consider “AAGUGUGCUAAUAGUCGCAGG [Fam3.1 aminoacylation ribozyme variant]”, for which, in the data set on biotinyl-Trp-oxazolone, the self-aminoacylation turned out to be 2.17. As for “CGUCACUUCAAGCAAUCGGUC [Fam1B.1 aminoacylation ribozyme variant]”, the self-aminoacylation worked out at 11.1 in the data set on biotinyl-Trp-oxazolone and 22 in the data set with biotinyl-Phe-oxazolone. On to “AAGUUGGCUAAUAGUCGAAAG [Fam3.1 aminoacylation ribozyme variant]”, for which the self-aminoacylation in the data set on biotinyl-Trp-oxazolone is 2.27; in the data set with biotinyl-Phe-oxazolone it was 2.91. The corresponding values for “CUGCGUCAAACAAUCGGUCUG [Fam1A.1 aminoacylation ribozyme variant]” are 7.19 and 8.22. For the sequence “CUACUUCAACAAAUCGGUCUG [Fam1A.1 aminoacylation ribozyme variant]”, the self-aminoacylation stood at 5.45 with biotinyl-Trp-oxazolone and 7.2 in the data set with biotinyl-Phe-oxazolone. For “AAGUUUGCUAAAAGUCGAAAG [Fam3.1 aminoacylation ribozyme variant]”, in that order: 2.17 and 4.76. The corresponding values for “GAGUUUUCUAAUAGUCGCAAG [Fam3.1 aminoacylation ribozyme variant]” are 2.07 and 3.59. As for “AAGAUUGCUAAUAGUCGCCAG [Fam3.1 aminoacylation ribozyme variant]”, the self-aminoacylation with biotinyl-Trp-oxazolone is 2.02. On the same count and under the same terms, the value for “CGACACUUCAAGCAAUCGGUU [Fam1B.1 aminoacylation ribozyme variant]” was 2.37; that for “CCACACUCCGAGCAAUCGGUC [Fam1B.1 aminoacylation ribozyme variant]” was 2.37. With “AAGUGUGCUAAUAGUCGCAAU [Fam3.1 aminoacylation ribozyme variant]”, the self-aminoacylation with biotinyl-Trp-oxazolone was determined as 2.01. Same read-out and setting: the value for “AAGUUAGGUAAUAGUCGCAAG [Fam3.1 aminoacylation ribozyme variant]” was 2.11; that for “AUUACCCUGGUCAUUGAGUAA [Fam2.1 aminoacylation ribozyme variant]” was 2.02. The same measure, in the same setting: the figure for “CCACCCUUCAAGCCAUCGGUC [Fam1B.1 aminoacylation ribozyme variant]” is 2.57.

Consider “AAGUUUGCUAUUAGUCGCAGG [Fam3.1 aminoacylation ribozyme variant]”, for which the self-aminoacylation with biotinyl-Trp-oxazolone is 2.01.

(Values after the supplement of paper PMC9233669.)
